± gives the half width of the 95% confidence interval.

A short description of data set [1]: folding stability dG unfold from chymotrypsin proteolysis; higher = more stable. In outline:
(§1)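 K50 was inferred by Bayesian fitting of sequencing counts obtained after protease digestion of designed mini-proteins. Unfolding free energy was derived by comparison with a sequence-predicted unfolded-state K50 and a shared folded-state K50, for each protease or both combined. The mini-proteins were under 80 residues, had no cysteine, were carried in a PA-tagged cDNA display construct, and were kept only if AlphaFold2 dimer inter-PAE exceeded 15.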

The nature of data set [2]: folding stability dG unfold from trypsin proteolysis; higher = more stable. The gist of the method:
as §1

Data set [3] in a line: folding stability dG unfold (combined trypsin and chymotrypsin); higher = more stable. The gist of the method:
as §1

In the case of “SMLKPGDIVKLPNGPIYVVKKLTISYDPSTSPPKLELELVPLGEPKPVLKEYTLPDGSTKTEIGYYWTGPSA [r9_914_TrMRF]”, the results for the “folding stability dG unfold” value in data set [1], in data set [2] and in data set [3] were 0.995 ± 0.11 kcal/mol, 0.922 ± 0.031 kcal/mol and 0.98 ± 0.12 kcal/mol, respectively.
The like results for “SMLNPDDPSVPERLVLVIPVPEEAVENGDFEVVRAKVEEAAEELEPLGWRVVSVEFDTETKEARLVLERPSA [r9_75_TrMRF]” were, in that order, 3.506 ± 0.021 kcal/mol, 3.76 ± 0.07 kcal/mol and 3.617 ± 0.032 kcal/mol.
The like results for “SMLPLLPPRRLLIEVVFPLPEDATPEQLELAERAAEALADVLEALGFKDVRVLVEPTDPGDVLILAEVEASA [r9_865_TrMRF]” were, in that order, 1.97 ± 0.034 kcal/mol, 1.49 ± 0.023 kcal/mol and 1.82 ± 0.074 kcal/mol.
The like results for “SMLTITDENGNTITLPAAGEPVTLTVEIEVDGYTVTVEITFDADTKKITIKVEVTNPNGEKQTFTFTFDLSA [r9_1073_TrROS_Hall]” were, in that order, 4.23 ± 0.083 kcal/mol, 2.92 ± 0.12 kcal/mol and 3.84 ± 0.16 kcal/mol.
As to “SMLVSVTFPLTLEPEEGDHTVRIYATAPDGSSLGEVTAPVKAVGDKVEFEVTATFPLPEGAVIERIETEPSA [r9_292_TrMRF]”, the “folding stability dG unfold” value in data set [1] was 0.857 ± 0.12 kcal/mol; in data set [2], 0.681 ± 0.025 kcal/mol; in data set [3] it was 0.869 ± 0.084 kcal/mol.
The like results for “SMPAEMSPEEVREAVRALVEEALAANPGEPVTVPIEEIRAALPGYSPEVLREVLGLTEEEIAAGPVTLRLSA [r9_525_JUSTAS]” were, in that order, -0.45 ± 0.35 kcal/mol, 0.885 ± 0.042 kcal/mol and 0.483 ± 0.12 kcal/mol.
Taken in the same sequence, the figures for “SMPEIKVEKKNGKLTITVPKGAKIKIKIEVNGKKIEKEVEVKEGETVTITIELPPNMPKDVKIKEIEIEKSA [r9_1152_TrROS_Hall]” were 1.93 ± 0.13 kcal/mol, 1.61 ± 0.066 kcal/mol and 1.88 ± 0.13 kcal/mol.
Taken in the same sequence, the figures for “SMPEKYIVRVEVRGRDGKTVTFEAEATVDSSDFDDFIEAILEAPGLEDADEVRFYVYRLGTGRPEEFTVPSA [r9_97_TrMRF]” were 3.03 ± 0.06 kcal/mol, 2.01 ± 0.069 kcal/mol and 2.7 ± 0.069 kcal/mol.
As to “SMPEVRVEEVTIELEFTLPDGRTVRVEIRLTRVTLPDGRVFTRLEIKVEVPEEDEEARKLLKELLEELLSSA [r9_908_TrROS_Hall]”, the “folding stability dG unfold” value in data set [1] was found to be 4.75 ± 0.13 kcal/mol; in data set [2], 4.52 ± 0.14 kcal/mol; in data set [3] it was 4.69 ± 0.12 kcal/mol.
“SMPGVRVRLYTVRVKTPEGGELTAPIAVPAELFTEEEIRELVREAFPDAEDVEIEPAVLELPPAPGLLTASA [r9_841_TrMRF]”: the “folding stability dG unfold” value in data set [1] was found to be 1.31 ± 0.1 kcal/mol; in data set [2] it was 1.39 ± 0.034 kcal/mol; in data set [3] it was 1.43 ± 0.079 kcal/mol.
“SMPLIIIAKKNKDGTGTILIKKGDKVIEIEFEKNIKPEELKKKAIETALTLKKKTEELGIPIEIKEIIFESA [r9_751_TrMRF]”: the “folding stability dG unfold” value in data set [1] was 2.23 ± 0.077 kcal/mol; in data set [2], 1.77 ± 0.082 kcal/mol; in data set [3], 2.1 ± 0.091 kcal/mol.
As for “SMPLLVKVDTPEQREKLLKVLEEIEKETDIKIELVSEHPDGKYEFLIEAPLEEAVKIAKKLKEAGNVEIVSA [r9_472_TrMRF]”, the “folding stability dG unfold” value came to 3.48 ± 0.12 kcal/mol in data set [1], 3.89 ± 0.19 kcal/mol in data set [2] and 3.7 ± 0.1 kcal/mol in data set [3].
The like results for “SMPPEDPGELTLVVPDTRNVTVTLPVPVPPEARVLVTFSDGRRVEAPAGTELTFTIPPGRPYVIRVEVYASA [r9_79_TrMRF]” were, in that order, 1.86 ± 0.085 kcal/mol, 1.2 ± 0.027 kcal/mol and 1.6 ± 0.076 kcal/mol.
For “SMPPGERYRMTMKFPDGKKITLEMNPGGWWRIKVENKNGKPQHQQPIPPDNPQELAENFGIDKVTDVEPVSA [r9_1107_TrROS]”, the “folding stability dG unfold” value is 2.02 ± 0.2 kcal/mol in data set [1], 2.01 ± 0.095 kcal/mol in data set [2] and 2.05 ± 0.17 kcal/mol in data set [3].
Regarding “SMPPLGEETTLLETIELPEKLTVEIRRVTLPNGVPLIEVSKTDPSGNTTPIFRAPGNDPAALAAARAALASA [r9_1069_JUSTAS]”, the “folding stability dG unfold” value was -0.0163 ± 0.47 kcal/mol in data set [1], 0.438 ± 0.078 kcal/mol in data set [2] and 0.262 ± 0.21 kcal/mol in data set [3].
The like results for “SMPTLKITIEKKLPNGEKKKIEIEISLEELLKEARKKKGLESEEEAREALAKELAEKLKEEGYKVKIEPVSA [r9_868_TrROS_Hall]” were, in that order, 0.209 ± 0.42 kcal/mol, 0.855 ± 0.17 kcal/mol and 0.525 ± 0.32 kcal/mol.
Taken in the same sequence, the figures for “SMPVGVEELAERLAEEIEKELSEKTGVPVKVEKITVEEDPATGTVTVTITLYLPDGKKIREESLTVPVLESA [r9_60_JUSTAS]” were 1.52 ± 0.037 kcal/mol, 1.59 ± 0.051 kcal/mol and 1.53 ± 0.065 kcal/mol.
As to “SMSFEAELTLPDQPVTVPVTLDPATGTATVTVTTTHPDRDETTTTTVTVSDPSELLALLRELPPGATLRLSA [r9_713_JUSTAS]”, the “folding stability dG unfold” value in data set [1] stood at 0.974 ± 0.059 kcal/mol; in data set [2] it was 0.307 ± 0.079 kcal/mol; in data set [3], 0.771 ± 0.068 kcal/mol.

These data come from the supplement of paper PMC12764529.
